The source of these data is paper PMC3696691, “Zinc-induced Self-association of Complement C3b and Factor H” (The Journal of Biological Chemistry, 2013).

In the assay the target is T1, C3b (human, UniProt P01024 23-667; P01024 749-1663, free SH group of the C3b thioester blocked with 20 mM iodoacetamide).
T1 construct: Complement C3 beta chain, human; Complement C3b alpha' chain, human: the alpha chain without the ANA/C3a domain; here cut by trypsin; 12 domains; calculated mass 179.3 kDa; also called active C3b; source: made from C3 purified from human plasma by trypsin (1% w/w, 120 s, 37 °C), iodoacetamide added, purified on Superose 6
Kind of assay: AUC; sedimentation velocity, 50,000 rpm, 20 °C; 1:1 mixture of 5.5 uM C3b and 5.5 uM FH incubated at 4 °C overnight; no zinc. Particulars: both partners purified.

B1: complement Factor H (FH), wild-type (natural protein, human, UniProt P08603 19-1231, looked up)
chain: EDCNELPPRRNTEILTGSWSDQTYPEGTQAIYKCRPGYRSLGNVIMVCRKGEWVALNPLRKCQKRPCGHPGDTPFGTFTLTGGNVFEYGVKAVYTCNEGYQLLGEINYRECDTDGWTNDIPICEVVKCLPVTAPENGKIVSSAMEPDREYHFGQAVRFVCNSGYKIEGDEEMHCSDDGFWSKEKPKCVEISCKSPDVINGSPISQKIIYKENERFQYKCNMGYEYSERGDAVCTESGWRPLPSCEEKSCDNPYIPNGDYSPLRIKHRTGDEITYQCRNGFYPATRGNTAKCTSTGWIPAPRCTLKPCDYPDIKHGGLYHENMRRPYFPVAVGKYYSYYCDEHFETPSGSYWDHIHCTQDGWSPAVPCLRKCYFPYLENGYNQNYGRKFVQGKSIDVACHPGYALPKAQTTVTCMENGWSPTPRCIRVKTCSKSSIDIENGFISESQYTYALKEKAKYQCKLGYVTADGETSGSITCGKDGWSAQPTCIKSCDIPVFMNARTKNDFTWFKLNDTLDYECHDGYESNTGSTTGSIVCGYNGWSDLPICYERECELPKIDVHLVPDRKKDQYKVGEVLKFSCKPGFTIVGPNSVQCYHFGLSPDLPICKEQVQSCGPPPELLNGNVKEKTKEEYGHSEVVEYYCNPRFLMKGPNKIQCVDGEWTTLPVCIVEESTCGDIPELEHGWAQLSSPPYYYGDSVEFNCSESFTMIGHRSITCIHGVWTQLPQCVAIDKLKKCKSSNLIILEEHLKNKKEFDHNSNIRYRCRGKEGWIHTVCINGRWDPEVNCSMAQIQLCPPPPQIPNSHNMTTTLNYRDGEKVSVLCQENYLIQEGEEITCKDGRWQSIPLCVEKIPCSQPPQIEHGTINSSRSSQESYAHGTKLSYTCEGGFRISEENETTCYMGKWSSPPQCEGLPCKSPPEISHGVVAHMSDSYQYGEEVTYKCFEGFGIDGPAIAKCLGEKWSHPPSCIKTDCLSLPSFENAIPMGEKKDVYKAGEQVTYTCATYYKMDGASNVTCINSRWTGRPTCRDTSCVNPPTVQNAYIVSRQMSKYPSGERVRYQCRSPYEMFGDEEVMCLNGNWTEPPQCKDSTGKCGPPPPIDNGDITSFPLSVYAPASSVEYQCQNLYQLEGNKRITCRNGQWSEPPKCLHPCVISREIMENYNIALRWTAKQKLYSRTGESVEFVCKRGYRLSSRSHTLRTTCWDGKLEYPTCAKR
notes: Complement factor H, human, 20 SCR domains (SCR-1/20); Calculated mass 154.4 kDa; source: gel filtration
With B1, the “stoichiometry N” value was determined as 1.
